The term stoichiometry N denotes a count of units in the complex or per binding partner.

“And” between values parts separate entries of the source, which are not always exact repeats. Equal entries are not always repeated. Where two headings read alike, the source gives them in different places.

The values below come from article PMC5709234.

Experiment in all cases: native MS
Assay [1] deals with Alcohol dehydrogenase 1 (S. cerevisiae) (S. cerevisiae) (UniProt P00330).
For assay [2] the target is unchanged. This is another data set of the same source.
In assay [3] the target is Truncated alcohol dehydrogenase 1 (S. cerevisiae) (S. cerevisiae).
Assay [4] addresses Trastuzumab light chain, dissociated from the mAb.

Sequence of Truncated alcohol dehydrogenase 1 (S. cerevisiae) (domain or fragment) (P00330 2-348): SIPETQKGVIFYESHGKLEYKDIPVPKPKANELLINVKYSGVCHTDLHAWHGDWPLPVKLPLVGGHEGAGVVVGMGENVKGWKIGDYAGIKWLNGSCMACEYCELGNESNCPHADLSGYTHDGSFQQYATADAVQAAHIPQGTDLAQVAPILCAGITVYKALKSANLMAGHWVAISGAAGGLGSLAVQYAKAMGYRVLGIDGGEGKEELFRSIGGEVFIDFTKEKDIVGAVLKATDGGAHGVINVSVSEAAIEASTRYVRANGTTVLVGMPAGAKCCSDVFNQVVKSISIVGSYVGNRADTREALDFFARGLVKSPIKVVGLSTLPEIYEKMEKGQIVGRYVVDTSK

Regarding “Alcohol dehydrogenase 1 (S. cerevisiae) (from UniProt P00330 2-348) (enzyme)”, the stoichiometry N in assay [1] was 2 and 4. Besides, in assay [2], the percent detected as homotetramer came out at 92% and the stoichiometry N was found to be 4. For “Truncated alcohol dehydrogenase 1 (S. cerevisiae) (domain or fragment)”, the stoichiometry N in assay [3] was 4. Substance “Trastuzumab light chain, dissociated from the mAb (domain or fragment)” gave a stoichiometry N in assay [4] of 2.
